Assay results as given in publication PMC4931317, “UtpA and UtpB chaperone nascent pre-ribosomal RNA and U3 snoRNA to initiate eukaryotic ribosome assembly” (Nature Communications, 2016).
Each block holds one binder with its values, some of them ahead of it.

B3: Utp9 (natural protein, S. cerevisiae, UniProt P38882 1-575, looked up)
chain: MGSSLDLVASFSHDSTRFAFQASVAQKNNVDIYPLNETKDYVVNSSLVSHIDYETNDMKVSDVIFFGWCSDLIDTQSSNIKRKLDEDEGTGESSEQRCENFFVNGFPDGRIVVYSSNGKDIVNIIKNKKEILGADTDESDIWILDSDKVVKKLQYNNSKPLKTFTLVDGKDDEIVHFQILHQNGTLLVCIITKQMVYIVDPSKRRPSTKYSFEISDAVACEFSSDGKYLLIANNEELIAYDLKEDSKLIQSWPVQVKTLKTLDDLIMALTTDGKINNYKIGEADKVCSIVVNEDLEIIDFTPINSKQQVLISWLNVNEPNFESISLKEIETQGYITINKNEKNNADEADQKKLEEKEEEAQPEVQHEKKETETKINKKVSKSDQVEIANILSSHLEANSTEILDDLMSGSWTEPEIKKFILTKINTVDHLSKIFLTISKSITQNPWNEENLLPLWLKWLLTLKSGELNSIKDKHTKKNCKHLKSALRSSEEILPVLLGIQGRLEMLRRQAKLREDLAQLSMQEGEDDEIEVIEHSNVISNPLQDQASPVEKLEPDSIVYANGESDEFVDASEYKD
notes: Utp9, S. cerevisiae, subunit of UtpA; No tag is named for it in either strain; strains are in Supplementary Data 1; source: endogenous, S. cerevisiae YSK32, co-purified with Utp10-GFP; overexpressed (galactose promoter) in S. cerevisiae YSK122, co-purified with Utp15-mCherry

Tests used:
[1] = target: B3; assay: pull-down; Utp4, Utp5, Utp8, Utp9 and Utp15-3myc-TEV-mCherry-3FLAG overexpressed in yeast YSK122; lysate on anti-mCherry nanobody sepharose; 50 mM HEPES-NaOH pH 7.6, 100 mM NaCl, 4 °C; TEV elution; conditions: partners not purified
[2] = target: T1, Utp5 (S. cerevisiae, UniProt Q04177 1-643); assay: as above; conditions: partners not purified
T1 construct: Utp5, S. cerevisiae, subunit of UtpA; No tag is named for it in either strain; strains are in Supplementary Data 1; source: endogenous, S. cerevisiae YSK32, co-purified with Utp10-GFP; overexpressed (galactose promoter) in S. cerevisiae YSK122, co-purified with Utp15-mCherry
T1 sequence (looked up): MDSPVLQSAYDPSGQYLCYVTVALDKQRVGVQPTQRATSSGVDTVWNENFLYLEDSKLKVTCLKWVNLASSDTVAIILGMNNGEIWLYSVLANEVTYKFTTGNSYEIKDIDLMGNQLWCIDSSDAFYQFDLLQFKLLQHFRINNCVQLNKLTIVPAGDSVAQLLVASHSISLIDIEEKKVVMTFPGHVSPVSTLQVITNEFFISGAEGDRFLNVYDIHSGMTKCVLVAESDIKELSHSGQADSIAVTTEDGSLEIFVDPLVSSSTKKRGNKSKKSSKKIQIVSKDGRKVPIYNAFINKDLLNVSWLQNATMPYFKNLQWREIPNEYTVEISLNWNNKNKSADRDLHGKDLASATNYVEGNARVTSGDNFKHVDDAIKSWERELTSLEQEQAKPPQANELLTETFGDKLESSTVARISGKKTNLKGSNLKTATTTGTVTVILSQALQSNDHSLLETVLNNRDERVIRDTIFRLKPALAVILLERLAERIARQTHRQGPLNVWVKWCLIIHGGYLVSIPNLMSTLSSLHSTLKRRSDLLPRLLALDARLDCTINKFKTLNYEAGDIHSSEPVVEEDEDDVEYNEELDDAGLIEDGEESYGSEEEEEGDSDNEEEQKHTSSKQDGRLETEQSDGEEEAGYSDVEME

[3] = target: T2, Utp8 (S. cerevisiae, UniProt P53276 1-713); assay: as above; conditions: partners not purified
T2 construct: Utp8, S. cerevisiae, subunit of UtpA; No tag is named for it in either strain; strains are in Supplementary Data 1; source: endogenous, S. cerevisiae YSK32, co-purified with Utp10-GFP; overexpressed (galactose promoter) in S. cerevisiae YSK122, co-purified with Utp15-mCherry
T2 sequence (looked up): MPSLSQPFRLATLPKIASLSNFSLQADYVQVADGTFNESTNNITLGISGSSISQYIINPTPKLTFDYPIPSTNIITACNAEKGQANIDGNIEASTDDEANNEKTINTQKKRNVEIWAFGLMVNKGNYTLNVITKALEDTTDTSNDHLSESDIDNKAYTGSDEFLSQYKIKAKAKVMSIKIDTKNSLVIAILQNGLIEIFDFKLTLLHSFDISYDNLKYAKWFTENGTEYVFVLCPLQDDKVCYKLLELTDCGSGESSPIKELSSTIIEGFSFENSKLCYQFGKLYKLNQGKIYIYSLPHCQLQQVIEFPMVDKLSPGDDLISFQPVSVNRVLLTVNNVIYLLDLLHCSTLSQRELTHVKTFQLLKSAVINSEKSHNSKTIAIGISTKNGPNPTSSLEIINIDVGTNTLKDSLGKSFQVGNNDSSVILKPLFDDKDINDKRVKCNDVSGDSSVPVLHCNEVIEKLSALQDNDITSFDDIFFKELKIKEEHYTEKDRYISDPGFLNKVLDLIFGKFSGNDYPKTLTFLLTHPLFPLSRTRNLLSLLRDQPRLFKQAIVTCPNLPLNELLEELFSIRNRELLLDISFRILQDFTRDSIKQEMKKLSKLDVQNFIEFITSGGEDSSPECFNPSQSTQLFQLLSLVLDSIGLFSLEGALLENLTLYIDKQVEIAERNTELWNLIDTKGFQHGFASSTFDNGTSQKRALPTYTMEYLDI

[4] = target: T3, Utp10-3C-GFP (S. cerevisiae, UniProt P42945 1-1769); assay: pull-down; UtpA held via Utp10-GFP on anti-GFP nanobody sepharose (purified at 200 mM NaCl), then incubated 7 h at 4 °C in buffer with 400 mM NaCl; 3C elution; Coomassie-stained SDS-PAGE; conditions: partners not purified
T3 construct: Utp10, S. cerevisiae, subunit of UtpA (200 kDa); GFP is joined through a 3C protease site; it holds the protein on the beads in a1-a3 and is cleaved off by 3C on elution, so it is absent in the SEC step and in the DSS cross-linking (a6); also called Utp10-GFP; Utp10-sbp-H14-3C-GFP; source: S. cerevisiae YSK32, C-terminal tag integrated in the genome, endogenous level; captured from lysate on …
T3 sequence (P42945 whole entry): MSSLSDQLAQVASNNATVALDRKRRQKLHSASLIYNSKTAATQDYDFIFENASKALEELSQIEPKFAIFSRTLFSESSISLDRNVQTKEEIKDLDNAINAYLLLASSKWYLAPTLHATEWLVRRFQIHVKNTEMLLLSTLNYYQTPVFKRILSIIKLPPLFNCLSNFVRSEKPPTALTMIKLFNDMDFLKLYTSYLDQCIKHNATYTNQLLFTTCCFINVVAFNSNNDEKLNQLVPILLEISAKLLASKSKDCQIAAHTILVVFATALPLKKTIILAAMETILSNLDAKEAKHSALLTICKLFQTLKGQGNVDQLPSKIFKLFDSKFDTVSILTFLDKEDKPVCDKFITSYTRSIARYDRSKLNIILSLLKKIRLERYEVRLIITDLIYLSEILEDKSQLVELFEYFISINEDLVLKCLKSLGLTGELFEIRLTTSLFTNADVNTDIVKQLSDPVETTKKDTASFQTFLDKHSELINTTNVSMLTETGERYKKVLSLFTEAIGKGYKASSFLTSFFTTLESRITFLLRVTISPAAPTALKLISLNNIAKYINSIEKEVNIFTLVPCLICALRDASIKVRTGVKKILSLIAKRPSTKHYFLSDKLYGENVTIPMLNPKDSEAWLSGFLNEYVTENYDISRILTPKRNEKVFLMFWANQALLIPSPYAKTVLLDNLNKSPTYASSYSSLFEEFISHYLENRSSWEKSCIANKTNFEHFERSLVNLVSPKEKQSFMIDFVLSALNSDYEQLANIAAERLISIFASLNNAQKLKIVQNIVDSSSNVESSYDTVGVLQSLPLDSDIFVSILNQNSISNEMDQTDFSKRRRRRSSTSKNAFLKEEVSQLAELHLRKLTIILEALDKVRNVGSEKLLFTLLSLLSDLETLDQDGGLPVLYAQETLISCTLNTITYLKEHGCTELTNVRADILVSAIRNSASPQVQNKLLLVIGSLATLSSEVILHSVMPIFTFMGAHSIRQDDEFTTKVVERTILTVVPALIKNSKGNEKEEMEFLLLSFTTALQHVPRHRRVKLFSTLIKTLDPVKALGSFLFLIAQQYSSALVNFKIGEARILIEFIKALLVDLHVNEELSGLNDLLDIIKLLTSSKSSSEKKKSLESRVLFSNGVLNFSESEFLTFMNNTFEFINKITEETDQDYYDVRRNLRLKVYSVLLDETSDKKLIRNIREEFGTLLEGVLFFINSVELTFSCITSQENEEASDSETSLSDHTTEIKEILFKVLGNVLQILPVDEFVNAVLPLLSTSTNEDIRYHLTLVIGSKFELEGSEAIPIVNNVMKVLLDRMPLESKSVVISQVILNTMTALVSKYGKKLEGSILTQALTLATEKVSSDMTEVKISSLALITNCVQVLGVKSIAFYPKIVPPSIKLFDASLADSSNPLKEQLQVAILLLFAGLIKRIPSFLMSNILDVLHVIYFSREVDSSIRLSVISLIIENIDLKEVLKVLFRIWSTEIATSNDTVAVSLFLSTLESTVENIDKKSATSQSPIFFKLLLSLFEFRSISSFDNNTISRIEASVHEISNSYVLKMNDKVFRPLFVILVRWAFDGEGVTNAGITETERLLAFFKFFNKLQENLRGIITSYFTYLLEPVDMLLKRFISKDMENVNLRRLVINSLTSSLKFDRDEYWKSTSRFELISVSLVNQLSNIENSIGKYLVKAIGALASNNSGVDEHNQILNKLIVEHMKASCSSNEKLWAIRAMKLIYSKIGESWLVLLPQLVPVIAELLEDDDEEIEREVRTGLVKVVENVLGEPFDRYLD

[5] = target: T4, Utp4 (S. cerevisiae, UniProt Q06679 1-776); assay: cross-linking; DSS (0.2 mM, H12/D12) cross-linking of SEC-purified endogenous UtpA, 25 °C, 30 min, 50 mM HEPES-NaOH pH 7.6, 200 mM NaCl, 1 mM EDTA; cross-linked peptides found by mass spectrometry (pLink); conditions: both partners purified
T4 construct: Utp4, S. cerevisiae, subunit of UtpA; No tag is named for it in either strain; strains are in Supplementary Data 1; source: endogenous, S. cerevisiae YSK32, co-purified with Utp10-GFP; overexpressed (galactose promoter) in S. cerevisiae YSK122, co-purified with Utp15-mCherry
T4 sequence (looked up): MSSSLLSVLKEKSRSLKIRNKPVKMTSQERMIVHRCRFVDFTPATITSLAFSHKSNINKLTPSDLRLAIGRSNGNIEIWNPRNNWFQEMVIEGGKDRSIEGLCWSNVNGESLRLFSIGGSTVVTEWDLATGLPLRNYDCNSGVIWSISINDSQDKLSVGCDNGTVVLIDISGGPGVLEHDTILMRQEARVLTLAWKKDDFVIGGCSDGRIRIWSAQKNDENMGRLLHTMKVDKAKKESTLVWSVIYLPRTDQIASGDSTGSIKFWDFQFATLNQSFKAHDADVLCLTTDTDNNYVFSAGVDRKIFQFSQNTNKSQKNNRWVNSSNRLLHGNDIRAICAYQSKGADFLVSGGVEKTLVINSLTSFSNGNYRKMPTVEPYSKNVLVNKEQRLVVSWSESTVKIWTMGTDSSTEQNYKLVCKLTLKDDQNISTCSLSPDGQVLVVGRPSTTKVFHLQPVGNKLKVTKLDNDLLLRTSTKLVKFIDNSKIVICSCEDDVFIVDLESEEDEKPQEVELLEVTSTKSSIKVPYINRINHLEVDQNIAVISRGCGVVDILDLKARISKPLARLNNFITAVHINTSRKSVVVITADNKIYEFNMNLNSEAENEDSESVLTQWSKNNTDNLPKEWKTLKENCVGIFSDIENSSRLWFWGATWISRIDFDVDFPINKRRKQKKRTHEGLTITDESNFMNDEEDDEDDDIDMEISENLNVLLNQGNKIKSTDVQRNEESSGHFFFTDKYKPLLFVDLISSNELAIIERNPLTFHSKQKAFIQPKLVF

- binding result [1]: binds
- binding result [2]: binds
- binding result [3]: binds
B1: Utp15-3myc-TEV-mCherry-3FLAG (overexpressed) (natural protein, S. cerevisiae, UniProt Q04305 1-513, looked up)
chain: MSTARPRIITSKAPLLPQQTTPEQRYWRQYTSAQLVKEHNSVTHISFNPQHPHDFAVTSSTRVQIFSSRTRQVIKTFSRFKDVVYSASFRSDGKLLCAGDATGLVSVYDSYNPRTILLSINASTHPTHVTKFHTQDNKILATASDDRVTRLWDISNAYEPQLELTGATDYVRTLSFIPAAPHLVATGSYDGLIRLYDTRSSGSTPIYSLNHDQPVENVIAVSPTQIVSCGGNNFKVWDLTSNKKLYERGNFNKAVTCLDYVENFDSPMQSALIASSLDGHVKVFDPLDNFQVKFGWKFSGPVLSCAVSPSTAQGNRHLVAGLSSGLLAIRTKKKEKRSSDKENAPASFNKNAKSNNFQRMMRGSEYQGDQEHIIHNDKVRSQRRMRAFERNINQFKWSEALDNAFVPGMAKELTLTVLQELRKRGKVRVALYGRDESTLEPLLNWCLKGIEDVRSASIVADWVAVVLELYGNTLESSPVLQELMIDLKTKVRHEIHKSKEAQRIEGMLQLLTS
notes: Utp15, S. cerevisiae, subunit of UtpA; Captured by mCherry in a4; the complex is eluted by TEV cleavage, so mCherry-3FLAG is off in the SEC step (a5); also called Utp15-TEV-mCherry; Utp15-mCherry; source: S. cerevisiae YSK122, overexpressed (galactose promoter); captured from lysate on anti-mCherry nanobody sepharose, TEV elution, SEC; not shown: 3myc, C-terminal, kept; mCherry, C-terminal, kept; …

- binding result [4]: binds
B2: Utp17 (Nan1) (natural protein, S. cerevisiae, UniProt Q02931 1-896, looked up)
chain: MTQSLGIEQYKLSVVSGGKPALNNLSSVTGNKNIARLSQDQRNYIIPFNNQIKVYSVETRQCVKTLKFANNSLLSGIFLQEEENNESIVKILLGDITVPQQEDAHLITVFTNNGHVIVLNYKGKLVESPKHFKISLADEKLANVFHSEGNYRILTTFKDPSQKAHNSLQSYRLYALTFDDAKKQFEVAHQAEWHNVILSNISSNGKLLAHMCKDVSTKDHEHKSISVVSLFDDSVNLSFPLGSILSSQTQSLSYNTRYVSSMAIDNMGQQLAVGFASGVISIVSLADLQIRLLKWHIDSVLSLSFSHDGSYLLSGGWEKVMSLWQLETNSQQFLPRLNGIIIDCQVLGPQGNYYSLILQMTENNSNSDYQFLLLNASDLTSKLSINGPLPVFNSTIKHIQQPISAMNTKNSNSITSLNHSKKKQSRKLIKSRRQDFTTNVEINPINKNLYFPHISAVQIFDFYKNEQVNYQYLTSGVNNSMGKVRFELNLQDPIITDLKFTKDGQWMITYEIEYPPNDLLSSKDLTHILKFWTKNDNETNWNLKTKVINPHGISVPITKILPSPRSVNNSQGCLTADNNGGLKFWSFDSHESNWCLKKISLPNFNHFSNSVSLAWSQDGSLIFHGFDDKLQILDFDTFKKFESLENTKTVSEFTLDSEIQTVKLINDTNLIVATRTTLNAINLLRGQVINSFDLYPFVNGVYKNGHMDRLITCDERTGNIALVINQQLTDLDGVPTINYKSRIIIFDSDLSTKLGNFTHHEYISWIGWNYDTDFIFLDIESTLGVVGTTVNTQLSDEVNNEGILDGLVSNTITTSASNSDIFAEQLHKLSSRGKKSDTRDKNTNDNDEDEEDIALEFINGEKKDKLVNMNSFTSMFDNIQNVQMDTFFDRVMKVLT
notes: Utp17 (Nan1), S. cerevisiae, subunit of UtpA (101 kDa); source: endogenous, S. cerevisiae YSK32, co-purified with Utp10-GFP

Binder: B3
- binding result [5]: binds
